Target: T1, Acinetobacter baumannii ApeQ (β-ketoacyl-ACP reductase of the aryl polyene biosynthesis gene cluster) (Acinetobacter baumannii (clinical CRAB …))
T1 construct: ApeQ of A. baumannii, amplified from genomic DNA of the clinical carbapenem-resistant strain C1 with primers designed on the A. baumannii ACICU genome; NCBI ACC55845.1; Cloned NdeI/XhoI into pET28a; His-tag removed with thrombin; Residues of the thrombin site may be left at the N-terminus; also called AbApeQ; source: E. coli BL21 (DE3), purified (Chelating Sepharose, thrombin, Q-Sepharose anion …)
Test: ITC; 2 mM holo ACP1 titrated into 0.1 mM reductase; 20 mM Tris pH 8, 100 mM NaCl, 2 mM NADPH; 25 °C; MicroCal 200
Details: both partners purified

B1: holo ACP1 (acyl carrier protein 1 of the A. baumannii aryl polyene biosynthesis gene cluster) (natural protein)
chain: MSNLADELKQMIIDVLALEDITIADIDTEAPLFGEGLGLDSIDALELGLALKKRYNIHLNAESDETKQHFKSIQSLVALVEAQQKS
modifications: holo form (phosphopantetheine arm; made by co-expression with holo-ACP synthase AbAcpS); residue not stated
B1 was tested, and the Kd was about 80 µM, the dH was 3.05 kcal/mol and the “stoichiometry N” value was 1.11.

From PMC8041823, “Structural comparison of Acinetobacter baumannii β-ketoacyl-acyl carrier protein reductases in fatty acid and aryl polyene biosynthesis” (Scientific Reports, 2021)
